In the data set the target is T1, Isl-1-Myc (UniProt P61372 1-349).
T1 sequence: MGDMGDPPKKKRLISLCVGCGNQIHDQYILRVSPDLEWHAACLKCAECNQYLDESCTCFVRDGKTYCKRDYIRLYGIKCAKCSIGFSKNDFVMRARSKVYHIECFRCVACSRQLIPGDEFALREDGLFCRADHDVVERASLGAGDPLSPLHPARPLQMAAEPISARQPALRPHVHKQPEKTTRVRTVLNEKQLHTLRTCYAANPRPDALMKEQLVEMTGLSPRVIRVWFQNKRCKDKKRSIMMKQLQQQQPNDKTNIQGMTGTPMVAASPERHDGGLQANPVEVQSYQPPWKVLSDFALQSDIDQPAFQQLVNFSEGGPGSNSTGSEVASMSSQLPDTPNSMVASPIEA
The data set can be described thus: competition.

This is an account of results in publication PMC4237994.

B1: Pdx1 Area IV-4 (dsDNA)
DNA 1: TTATTGCCTGCCTTTAATTGTACTTAT
DNA 2: ATAAGTACAATTAAAGGCAGGCAATAA
Consider B1, for which the binding result is “binds”.

B2: Pdx1 Area I-4 (dsDNA)
DNA 1: GTATCACCCATAATGGATTTAGCCACCT
DNA 2: AGGTGGCTAAATCCATTATGGGTGATAC
In the case of B2, the binding result is on record as “binds”.

B3: Pdx1 Area II-3 (dsDNA)
DNA 1: AATGCATGCAATTAGACCAGAAGTGCTAA
DNA 2: TTAGCACTTCTGGTCTAATTGCATGCATT
In the case of B3, the binding result is recorded as “binds”.
